Patent US11504441B2, “Radiolabeled compounds targeting the prostate-specific membrane antigen” (PROVINCIAL HEALTH SERVICES AUTHORITY, priority 2019, dated 2022)

Assay: in vivo
Set-up: species or system mice
Conditions: male, NODSCID 1L2RγKO, mouse, iv, total radioactivity

COc1ccc(CCCC(=O)NCC(=O)N[C@@H](CCCCNC(=O)CN2CCN(CC(=O)O)CCN(CC(=O)O)CCN(CC(=O)O)CC2)C(=O)NC[C@H]2CC[C@H](C(=O)N[C@@H](Cc3c4ccccc4cc4ccccc34)C(=O)NCCCC[C@H](NC(=O)N[C@@H](CCCC(=O)O)C(=O)O)C(=O)O)CC2)cc1 [177Lu-HTK03170, metal not drawn]
tissue uptake at 1 h (Adrenal glands uptake): 3.34 ± 0.45 %ID/g | tissue uptake at 4 h (Adrenal glands uptake): 1.78 ± 0.45 %ID/g | tissue uptake at 24 h (Adrenal glands uptake): 0.5 ± 0.16 %ID/g | tissue uptake at 72 h (Adrenal glands uptake): 0.27 ± 0.11 %ID/g | tissue uptake at 120 h (Adrenal glands uptake): 0.22 ± 0.18 %ID/g | tissue uptake at 1 h (Blood uptake): 16.9 ± 1.97 %ID/g | tissue uptake at 4 h (Blood uptake): 8.34 ± 1.67 %ID/g | tissue uptake at 24 h (Blood uptake): 0.59 ± 0.13 %ID/g | tissue uptake at 72 h (Blood uptake): 0.06 ± 0.02 %ID/g | tissue uptake at 120 h (Blood uptake): 0.02 ± 0.01 %ID/g | tissue uptake at 1 h (Bone uptake): 0.89 ± 0.27 %ID/g | tissue uptake at 4 h (Bone uptake): 0.45 ± 0.13 %ID/g | tissue uptake at 24 h (Bone uptake): 0.06 ± 0.04 %ID/g | tissue uptake at 72 h (Bone uptake): 0.03 ± 0.02 %ID/g | tissue uptake at 120 h (Bone uptake): 0.02 ± 0.01 %ID/g | tissue uptake at 1 h (Brain uptake): 0.23 ± 0.04 %ID/g | tissue uptake at 4 h (Brain uptake): 0.13 ± 0.03 %ID/g | tissue uptake at 24 h (Brain uptake): 0.02 ± 0.01 %ID/g | tissue uptake at 72 h (Brain uptake): 0.01 %ID/g | tissue uptake at 1 h (Fat uptake): 1.38 ± 0.45 %ID/g | tissue uptake at 4 h (Fat uptake): 0.6 ± 0.13 %ID/g | tissue uptake at 24 h (Fat uptake): 0.12 ± 0.04 %ID/g | tissue uptake at 72 h (Fat uptake): 0.04 ± 0.02 %ID/g | tissue uptake at 120 h (Fat uptake): 0.03 ± 0.03 %ID/g | tissue uptake at 1 h (Heart uptake): 3.6 ± 0.52 %ID/g | tissue uptake at 4 h (Heart uptake): 1.91 ± 0.4 %ID/g | tissue uptake at 24 h (Heart uptake): 0.26 ± 0.04 %ID/g | tissue uptake at 72 h (Heart uptake): 0.09 ± 0.03 %ID/g | tissue uptake at 120 h (Heart uptake): 0.04 ± 0.02 %ID/g | tissue uptake at 1 h (Intestine uptake): 1.19 ± 0.25 %ID/g | tissue uptake at 4 h (Intestine uptake): 0.61 ± 0.17 %ID/g | tissue uptake at 24 h (Intestine uptake): 0.18 ± 0.07 %ID/g | tissue uptake at 72 h (Intestine uptake): 0.14 ± 0.11 %ID/g | tissue uptake at 120 h (Intestine uptake): 0.04 ± 0.03 %ID/g | tissue uptake at 1 h (Kidneys uptake): 13.2 ± 1.87 %ID/g | tissue uptake at 4 h (Kidneys uptake): 9.23 ± 2.18 %ID/g | tissue uptake at 24 h (Kidneys uptake): 5.8 ± 1.24 %ID/g | tissue uptake at 72 h (Kidneys uptake): 2.56 ± 0.62 %ID/g | tissue uptake at 120 h (Kidneys uptake): 1.3 ± 0.55 %ID/g | tissue uptake at 1 h (Lacrimal uptake): 0.27 ± 0.08 %ID/g | tissue uptake at 4 h (Lacrimal uptake): 0.15 ± 0.07 %ID/g | tissue uptake at 24 h (Lacrimal uptake): 0.04 ± 0.03 %ID/g | tissue uptake at 72 h (Lacrimal uptake): 0.01 ± 0.01 %ID/g | tissue uptake at 1 h (Liver uptake): 2.67 ± 0.37 %ID/g | tissue uptake at 4 h (Liver uptake): 1.89 ± 0.69 %ID/g | tissue uptake at 24 h (Liver uptake): 0.69 ± 0.27 %ID/g | tissue uptake at 72 h (Liver uptake): 0.36 ± 0.13 %ID/g | tissue uptake at 120 h (Liver uptake): 0.23 ± 0.13 %ID/g | tissue uptake at 1 h (Lungs uptake): 8.06 ± 1.48 %ID/g | tissue uptake at 4 h (Lungs uptake): 4.35 ± 0.82 %ID/g | tissue uptake at 24 h (Lungs uptake): 0.72 ± 0.19 %ID/g | tissue uptake at 72 h (Lungs uptake): 0.18 ± 0.04 %ID/g | tissue uptake at 120 h (Lungs uptake): 0.06 ± 0.03 %ID/g | tissue uptake at 1 h (Muscle uptake): 1.15 ± 0.19 %ID/g | tissue uptake at 4 h (Muscle uptake): 0.58 ± 0.13 %ID/g | tissue uptake at 24 h (Muscle uptake): 0.08 ± 0.02 %ID/g | tissue uptake at 72 h (Muscle uptake): 0.02 ± 0.01 %ID/g | tissue uptake at 120 h (Muscle uptake): 0.01 ± 0.01 %ID/g | tissue uptake at 1 h (Pancreas uptake): 1.41 ± 0.31 %ID/g | tissue uptake at 4 h (Pancreas uptake): 0.74 ± 0.18 %ID/g | tissue uptake at 24 h (Pancreas uptake): 0.12 ± 0.03 %ID/g | tissue uptake at 72 h (Pancreas uptake): 0.04 ± 0.01 %ID/g | tissue uptake at 120 h (Pancreas uptake): 0.02 ± 0.02 %ID/g | tissue uptake at 1 h (Salivary uptake): 2.43 ± 0.33 %ID/g | tissue uptake at 4 h (Salivary uptake): 1.31 ± 0.3 %ID/g | tissue uptake at 24 h (Salivary uptake): 0.28 ± 0.04 %ID/g | tissue uptake at 72 h (Salivary uptake): 0.11 ± 0.03 %ID/g | tissue uptake at 120 h (Salivary uptake): 0.05 ± 0.04 %ID/g | tissue uptake at 1 h (Seminal uptake): 1.22 ± 0.4 %ID/g | tissue uptake at 4 h (Seminal uptake): 0.49 ± 0.1 %ID/g | tissue uptake at 24 h (Seminal uptake): 0.08 ± 0.02 %ID/g | tissue uptake at 72 h (Seminal uptake): 0.04 ± 0.01 %ID/g | tissue uptake at 120 h (Seminal uptake): 0.02 ± 0.01 %ID/g | tissue uptake at 1 h (Spleen uptake): 1.64 ± 0.83 %ID/g | tissue uptake at 4 h (Spleen uptake): 0.96 ± 0.29 %ID/g | tissue uptake at 24 h (Spleen uptake): 0.45 ± 0.1 %ID/g | tissue uptake at 72 h (Spleen uptake): 0.38 ± 0.15 %ID/g | tissue uptake at 120 h (Spleen uptake): 0.49 ± 0.38 %ID/g | tissue uptake at 1 h (Stomach uptake): 0.59 ± 0.12 %ID/g | tissue uptake at 4 h (Stomach uptake): 0.42 ± 0.15 %ID/g | tissue uptake at 24 h (Stomach uptake): 0.25 ± 0.13 %ID/g | tissue uptake at 72 h (Stomach uptake): 0.28 ± 0.33 %ID/g | tissue uptake at 120 h (Stomach uptake): 0.05 ± 0.08 %ID/g | tissue uptake at 1 h (Tail uptake): 6.11 ± 3.05 %ID/g | tissue uptake at 4 h (Tail uptake): 2.66 ± 0.9 %ID/g | tissue uptake at 24 h (Tail uptake): 0.31 ± 0.06 %ID/g | tissue uptake at 72 h (Tail uptake): 0.19 ± 0.12 %ID/g | tissue uptake at 120 h (Tail uptake): 0.08 ± 0.06 %ID/g | tissue uptake at 1 h (Testes uptake): 2.17 ± 0.32 %ID/g | tissue uptake at 4 h (Testes uptake): 1.83 ± 0.58 %ID/g | tissue uptake at 24 h (Testes uptake): 0.64 ± 0.53 %ID/g | tissue uptake at 72 h (Testes uptake): 0.24 ± 0.04 %ID/g | tissue uptake at 120 h (Testes uptake): 0.14 ± 0.06 %ID/g | tissue uptake at 1 h (Thyroid uptake): 2.9 ± 0.41 %ID/g | tissue uptake at 4 h (Thyroid uptake): 1.62 ± 0.42 %ID/g | tissue uptake at 24 h (Thyroid uptake): 0.37 ± 0.06 %ID/g | tissue uptake at 72 h (Thyroid uptake): 0.15 ± 0.01 %ID/g | tissue uptake at 120 h (Thyroid uptake): 0.08 ± 0.05 %ID/g | tissue uptake at 1 h (Tumor uptake): 27.2 ± 7.55 %ID/g | tissue uptake at 4 h (Tumor uptake): 47.6 ± 13.5 %ID/g | tissue uptake at 24 h (Tumor uptake): 57.2 ± 15.3 %ID/g | tissue uptake at 72 h (Tumor uptake): 59.3 ± 16 %ID/g | tissue uptake at 120 h (Tumor uptake): 61.9 ± 22.3 %ID/g
